Experimental data published in PMC7154896, “The Effect of Recombinant Tags on Citrus paradisi Flavonol-Specific 3-O Glucosyltransferase Activity” (Plants, 2020).
Each block holds one molecule with its values, some of them ahead of it.

Columns and labels:
tagged Cp3GT = biological target: T1, tagged Cp3GT (Citrus x paradisi, UniProt C5MR71); experiment: glucosyltransferase assay, UDP inhibition; assay type: biochemical
T1 construct: recombinant, Pichia pastoris X-33 (pPicZa), C-terminal thrombin site and c-myc/6x His tags kept; cobalt IMAC
T1 sequence (C5MR71 1-468): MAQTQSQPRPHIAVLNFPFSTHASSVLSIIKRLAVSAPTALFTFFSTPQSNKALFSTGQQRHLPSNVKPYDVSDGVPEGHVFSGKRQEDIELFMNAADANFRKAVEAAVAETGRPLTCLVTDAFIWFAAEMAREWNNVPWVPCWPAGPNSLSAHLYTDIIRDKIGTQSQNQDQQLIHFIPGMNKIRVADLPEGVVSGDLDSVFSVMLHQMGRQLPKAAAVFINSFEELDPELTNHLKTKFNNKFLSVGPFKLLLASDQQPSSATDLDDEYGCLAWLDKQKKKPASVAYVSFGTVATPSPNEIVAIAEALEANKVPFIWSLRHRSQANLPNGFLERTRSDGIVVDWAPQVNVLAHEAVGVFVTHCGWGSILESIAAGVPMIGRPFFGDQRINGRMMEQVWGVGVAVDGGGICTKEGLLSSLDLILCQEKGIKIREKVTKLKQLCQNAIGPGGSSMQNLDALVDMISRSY

untagged Cp3GT = biological target: T2, untagged Cp3GT (Citrus x paradisi, UniProt C5MR71); experiment: glucosyltransferase assay, UDP inhibition; assay type: biochemical
T2 construct: recombinant, Pichia pastoris X-33 (pPicZa), C-terminal c-myc/6x His tags cut off with thrombin; cobalt IMAC; 56 kDa on gel
T2 sequence (C5MR71 1-468): T1 sequence (C5MR71 1-468)

purified protein = substrate: O=c1c(O)c(-c2ccc(O)cc2)oc2cc(O)cc(O)c12; experiment: purified protein; conditions: acceptor varied 0–667 µM, non-limiting UDP-glucose, 30 °C, pH 7.5, µM
[1] = substrate: O=c1c(O)c(-c2ccc(O)c(O)c2)oc2cc(O)cc(O)c12; experiment: glucosyltransferase assay, Lineweaver-Burk; assay type: biochemical, Citrus x paradisi; conditions: acceptor varied 0–667 µM, non-limiting UDP-glucose, 30 °C, pH 7.5, µM
Description: (§1) glucosyltransferase assay, Lineweaver-Burk on tagged Cp3GT

[2] = substrate: O=c1ccn([C@@H]2O[C@H](CO[P@@](=O)(O)O[P@@](=O)(O)O[C@H]3O[C@H](CO)[C@@H](O)[C@H](O)[C@H]3O)[C@@H](O)[C@H]2O)c(=O)[nH]1; experiment: glucosyltransferase assay, Lineweaver-Burk; assay type: biochemical, Citrus x paradisi; conditions: UDP-glucose varied 0–1333 µM, non-limiting acceptor (not named), 30 °C, pH 7.5, µM
Description: as §1

[3] = substrate: O=c1c(O)c(-c2ccc(O)c(O)c2)oc2cc(O)cc(O)c12; experiment: glucosyltransferase assay, Lineweaver-Burk; assay type: biochemical, Citrus x paradisi; conditions: acceptor varied 0–667 µM, non-limiting UDP-glucose, 30 °C, pH 7.5, µM; remark: listed apart in the source
Description: (§2) glucosyltransferase assay, Lineweaver-Burk on untagged Cp3GT

[4] = substrate: O=c1ccn([C@@H]2O[C@H](CO[P@@](=O)(O)O[P@@](=O)(O)O[C@H]3O[C@H](CO)[C@@H](O)[C@H](O)[C@H]3O)[C@@H](O)[C@H]2O)c(=O)[nH]1; experiment: glucosyltransferase assay, Lineweaver-Burk; assay type: biochemical, Citrus x paradisi; conditions: UDP-glucose varied 0–1333 µM, non-limiting acceptor (not named), 30 °C, pH 7.5, µM; remark: listed apart in the source
Description: as §2

Ki (tagged Cp3GT): 61.8 µM
Ki (untagged Cp3GT): 73.1 µM
Molecule: O=c1ccn([C@@H]2O[C@H](COP(=O)(O)OP(=O)(O)O)[C@@H](O)[C@H]2O)c(=O)[nH]1 [UDP]

B1: tagged Cp3GT (Citrus x paradisi) (protein)
chain: T1 sequence (C5MR71 1-468)
notes: recombinant, Pichia pastoris X-33 (pPicZa), C-terminal thrombin site and c-myc/6x His tags kept; cobalt IMAC
Km (purified protein): 44.1 ± 3.41 µM
kcat (purified protein): 1.28 s⁻¹
kcat/Km (purified protein): 29000 M⁻¹ s⁻¹
Km [1]: 51.9 ± 8.29 µM
kcat [1]: 1.84 ± 0.19 s⁻¹
kcat/Km [1]: 35000 ± 1000 M⁻¹ s⁻¹
Km [2]: 49.7 ± 5.32 µM
kcat [2]: 0.637 ± 0.092 s⁻¹
kcat/Km [2]: 12000 ± 2000 M⁻¹ s⁻¹

B2: untagged Cp3GT (Citrus x paradisi) (protein)
chain: T1 sequence (C5MR71 1-468)
notes: recombinant, Pichia pastoris X-33 (pPicZa), C-terminal c-myc/6x His tags cut off with thrombin; cobalt IMAC; 56 kDa on gel
Km (purified protein): 53.7 ± 10.6 µM
kcat (purified protein): 1.34 s⁻¹
kcat/Km (purified protein): 25000 M⁻¹ s⁻¹
Km [3]: 42.4 ± 3.48 µM
kcat [3]: 1.54 ± 0.06 s⁻¹
kcat/Km [3]: 36000 ± 1000 M⁻¹ s⁻¹
Km [4]: 55.0 ± 4.97 µM
kcat [4]: 0.738 ± 0.125 s⁻¹
kcat/Km [4]: 12000 ± 400 M⁻¹ s⁻¹
